# Source: patent publication EP1812465B1
# pKd: −log10 of the molar value.
# Experiments:
# PRO87299(ECD)-Fc (human) = assay: Biacore; PRO87299(ECD)-Fc amine coupled (~9000 RU), HVEM injected at 2µg/ml, against the PR04346-Fc control flow cell
# LIGHT expressed on cells = assay: radioligand binding to transfected cells, Scatchard analysis
# [1] = molecular target: PRO87299/LIGHT expressed together on cells (human); assay: radioligand binding to cells expressing PRO87299 and LIGHT together, Scatchard analysis
# [2] = molecular target: HVEM expressed on transfected 293 cells; assay: radioligand binding to transfected cells, Scatchard analysis
# [3] = molecular target: HVEM expressed on transfected 293 cells; assay: radioligand binding to transfected cells, displacement with unlabelled protein, Scatchard analysis
# HVEM-Fc = assay: Biacore; HVEM-Fc amine coupled (~7500 RU), 8nM PRO87299(ECD)-Fc, read 105 seconds after injection
substance,measurement,setting,value
HVEM (protein of the SPDI protein library) (receptor),response units over control (response units),PRO87299(ECD)-Fc (human),1200
HVEM-Fc (Fc fusion),pKd,LIGHT expressed on cells,8.15
same,pKd,[1],9.30
I-125-LIGHT-FLAG (ligand),pKd,[2],8.60
PRO87299(ECD)-Fc (Fc fusion),pKd,[3],7.60
same,response units,HVEM-Fc,100 RU
